Here are results for 3 substances from paper PMC5958618.

This experiment has as its target F-actin (UniProt P68032). Nature of the experiment: co-sedimentation.

In the case of “E40K mutant human α-tropomyosin (Tpm1.1) with the N-terminal extension Met-Ala-Ser (natural protein)”, the Kd was 1.6 µM.

“wild-type human striated α-tropomyosin (Tpm1.1) with the N-terminal extension Met-Ala-Ser (natural protein)”: the Kd was 1.8 µM. On to “E62Q mutant human α-tropomyosin (Tpm1.1) with the N-terminal extension Met-Ala-Ser (natural protein)”, for which the Kd stood at 1.7 µM.

As usually defined, the Kd is the constant that tells how readily two partners part at equilibrium. Higher therefore signals weaker binding.
